# Source: the supplement of paper PMC10126150
# ± gives the standard deviation of the averaged measurements.
# System: ATP
# Test: switch fluorescence ratio, 500 uM ATP over buffer (Cy3 cluster intensity, sum of 5 cycles each) (fold (ratio)); higher = stronger signal-on switching upon ATP binding; sequences stand for … in TCGTCGGCAGCGTCAGATGTGTATAAGAGACAGTTTTTTTTTTTTTTTTTTTTTTTTT…TC
# Settings: aptamer strand: ATP DNA aptamer (quencher-CACCTGGGGGAGTATTGCGGAGGAAGG + anchor), 100 nM annealed; ATP concentration: 500 uM
# How it was run: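 The quencher-labelled ATP aptamer, at 100 nM, was annealed to Cy3-labelled switching-strand clusters on a modified Illumina MiSeq flow-cell. The clusters were imaged in selection buffer, then after 15 min with 500 uM ATP at 22 °C, and this buffer/ATP cycle ran five times with NaOH stripping and re-annealing between runs. Per-cluster fluorescence ratios, summed target-cycle over summed buffer-cycle Cy3 intensity, were averaged per switch-domain sequence. Clusters outside 100-1000 RFU were excluded.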
# 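Note: ATP exposure 15 min at 22 °C before imaging.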
row,Sequence,switch fluorescence ratio
1,GATAATGCGG,1.01 ± 0.025
2,GATAATTATG,0.98 ± 0.019
3,GATAATTCTG,1 ± 0.024
4,GATAATTGG,0.988 ± 0.02
5,GATAATTGTA,0.9822 ± 0.0033
6,GATACCGGTG,1.17 ± 0.25
7,GATACGCGGG,0.9947 ± 0.0057
8,GATAGCTGGG,1 ± 0.014
9,GATAGGATGG,0.9842 ± 0.0027
10,GATAGGATTG,0.987 ± 0.022
11,GATAGGCGTG,1.01 ± 0.029
12,GATAGGGATG,1.001 ± 0.0062
13,GATAGGGTAT,0.986 ± 0.015
14,GATAGGTATA,1.01 ± 0.032
15,GATAGGTTTC,0.977 ± 0.07
16,GATAGTCATG,0.985 ± 0.015
17,GATAGTTGCG,1.03 ± 0.06
18,GATATACCTT,1.15 ± 0.015
19,GATATAGTAT,0.993 ± 0.039
20,GATATAGTGC,1.01 ± 0.05
21,GATATATGAG,0.997 ± 0.064
22,GATATATTGC,1.03 ± 0.012
23,GATATCACTG,1.02 ± 0.016
24,GATATCTGGA,1.018 ± 0.0099
25,GATATGAGGG,1.029 ± 0.0037

row,Sequence,switch fluorescence ratio
1,GATATGCGTC,1.04 ± 0.0086
2,GATATGCTGT,0.985 ± 0.017
3,GATATGGAAG,1.13 ± 0.23
4,GATATGGATT,0.977 ± 0.016
5,GATATGGGAG,0.988 ± 0.018
6,GATATGTGTG,0.991 ± 0.011
7,GATATGTTGA,1 ± 0.023
8,GATATTATCA,1.017 ± 0.0049
9,GATATTCGGG,0.988 ± 0.017
10,GATATTGAGC,1.02 ± 0.026
11,GATATTGTGG,0.987 ± 0.025
12,GATATTTAGG,1.02 ± 0.038
13,GATATTTCGT,0.9768 ± 0.0034
14,GATATTTTTG,1 ± 0.024
15,GATCAAATAT,1.01 ± 0.0063
16,GATCACGTTG,0.999 ± 0.022
17,GATCACTATA,1.03 ± 0.054
18,GATCACTGTA,1.15 ± 0.036
19,GATCAGAGGT,1 ± 0.029
20,GATCATATTT,1 ± 0.017
21,GATCATGCTA,1.02 ± 0.02
22,GATCCAGAAT,0.9977 ± 0.0074
23,GATCCATACT,1.06 ± 0.042
24,GATCCCAGAG,1.16 ± 0.082
25,GATCCCGCGG,1.049 ± 0.0088

row,Sequence,switch fluorescence ratio
1,GATCCGAGTT,0.99 ± 0.034
2,GATCCTACGG,0.972 ± 0.048
3,GATCCTGAGG,0.968 ± 0.077
4,GATCGAAGGG,0.9849 ± 0.0079
5,GATCGATCGT,1 ± 0.027
6,GATCGCCGTT,1.07 ± 0.063
7,GATCGGGTTG,0.999 ± 0.026
8,GATCGTATAT,0.9987 ± 0.0084
9,GATCTCCCCT,1.38 ± 0.053
10,GATCTGGCGG,1.01 ± 0.034
11,GATCTGGCTT,0.976 ± 0.031
12,GATCTTAACA,1.003 ± 0.0089
13,GATGAAACGT,1.06 ± 0.045
14,GATGAATGCT,0.9814 ± 0.0034
15,GATGACAGGT,1.03 ± 0.041
16,GATGACAGTG,0.969 ± 0.083
17,GATGAGCTGT,1.03 ± 0.046
18,GATGAGTCTG,0.98 ± 0.044
19,GATGAGTTGT,0.961 ± 0.021
20,GATGATGGGA,0.97941 ± 0.00096
21,GATGATGGGG,0.998 ± 0.044
22,GATGATGGGT,1 ± 0.023
23,GATGATTATG,0.993 ± 0.011
24,GATGATTATT,0.9856 ± 0.0018
25,GATGATTTGT,1.02 ± 0.058

row,Sequence,switch fluorescence ratio
1,GATGCAAGTG,1.07 ± 0.033
2,GATGCCTGGA,1.02 ± 0.086
3,GATGCGATGT,1.18 ± 0.036
4,GATGCGGGAG,1.0227 ± 0.00027
5,GATGCTTATG,1.01 ± 0.04
6,GATGGACTAA,1.02 ± 0.018
7,GATGGAGATA,0.936 ± 0.06
8,GATGGAGGGC,1.05 ± 0.039
9,GATGGCGGGC,1.01 ± 0.013
10,GATGGCTGCG,1.04 ± 0.039
11,GATGGGAAAT,1 ± 0.012
12,GATGGGAATG,1.01 ± 0.013
13,GATGGGGCTC,0.979 ± 0.024
14,GATGGGGTGT,1.03 ± 0.027
15,GATGGTGTAA,0.967 ± 0.028
16,GATGGTTATC,0.961 ± 0.026
17,GATGGTTGGG,0.998 ± 0.029
18,GATGGTTGTC,1 ± 0.055
19,GATGTAACAC,1.07 ± 0.013
20,GATGTACACG,1.013 ± 0.003
21,GATGTCAACG,0.973 ± 0.032
22,GATGTCGTAC,0.99 ± 0.012
23,GATGTCGTGG,1.015 ± 0.0089
24,GATGTCTCGA,0.982 ± 0.079
25,GATGTGCACC,0.983 ± 0.027

row,Sequence,switch fluorescence ratio
1,GATGTGGGCA,1.05 ± 0.026
2,GATGTGGTGG,0.99 ± 0.034
3,GATGTGTGCG,0.897 ± 0.13
4,GATGTGTTTC,1.03 ± 0.06
5,GATGTTATTC,0.978 ± 0.011
6,GATGTTGTAC,1.09 ± 0.079
7,GATGTTGTTA,0.9647 ± 0.0086
8,GATGTTTGGA,1.014 ± 0.0049
9,GATGTTTTCT,0.982 ± 0.054
10,GATTAAAAAT,1.0123 ± 0.00055
11,GATTAAAGGA,1.01 ± 0.011
12,GATTAAAGGC,1.01 ± 0.039
13,GATTAAAGGG,1.001 ± 0.0085
14,GATTAACGTG,0.9917 ± 0.0044
15,GATTAAGCGT,0.984 ± 0.042
16,GATTAATTTT,1.02 ± 0.043
17,GATTACAGGG,0.957 ± 0.038
18,GATTACTTCA,1.065 ± 0.0071
19,GATTAGGAGT,0.985 ± 0.014
20,GATTAGGCGG,0.982 ± 0.066
21,GATTAGGCTC,1.03 ± 0.082
22,GATTATAGGT,1.01 ± 0.015
23,GATTATGGCG,1.047 ± 0.0054
24,GATTATTCGT,0.99 ± 0.028
25,GATTATTGTA,0.9762 ± 0.0045

row,Sequence,switch fluorescence ratio
1,GATTCAGGAG,1 ± 0.032
2,GATTCAGGGT,1 ± 0.024
3,GATTCCGAGC,1.44 ± 0.53
4,GATTCGCCTG,0.99 ± 0.016
5,GATTCGGGCG,1 ± 0.069
6,GATTCGGGGT,1 ± 0.017
7,GATTCGTGGC,0.906 ± 0.14
8,GATTCTCCGT,1.16 ± 0.016
9,GATTCTGGCA,0.9715 ± 0.0057
10,GATTCTTTTC,0.991 ± 0.014
11,GATTGACAAT,1.03 ± 0.031
12,GATTGAGAGT,1.019 ± 0.0087
13,GATTGAGGTC,0.989 ± 0.037
14,GATTGATGTG,0.995 ± 0.037
15,GATTGATTTT,1.02 ± 0.044
16,GATTGCCGAT,1 ± 0.034
17,GATTGCCGGT,1.01 ± 0.015
18,GATTGGAGCA,1.02 ± 0.034
19,GATTGGGGGT,0.982 ± 0.03
20,GATTGGGTAC,1.03 ± 0.025
21,GATTGGTAAT,0.996 ± 0.028
22,GATTGGTGAG,1.001 ± 0.0046
23,GATTGGTGGG,1.003 ± 0.0041
24,GATTGGTGTG,0.997 ± 0.024
25,GATTGGTTAT,0.962 ± 0.029

row,Sequence,switch fluorescence ratio
1,GATTGTAATA,1.01 ± 0.034
2,GATTGTAGTT,0.9586 ± 0.0034
3,GATTGTGAT,1.01 ± 0.04
4,GATTGTTCTC,0.981 ± 0.011
5,GATTGTTGGA,1.02 ± 0.037
6,GATTGTTTGT,1.03 ± 0.067
7,GATTGTTTTG,1.01 ± 0.034
8,GATTTACGTG,1.02 ± 0.012
9,GATTTAGGCA,0.986 ± 0.015
10,GATTTAGGTT,0.999 ± 0.015
11,GATTTATAAT,1.014 ± 0.0029
12,GATTTCCAGG,1.2 ± 0.024
13,GATTTCCGTG,0.98686 ± 0.00065
14,GATTTCGATT,0.969 ± 0.012
15,GATTTCTGCT,0.974 ± 0.021
16,GATTTGCAGA,1 ± 0.024
17,GATTTGCCGG,0.995 ± 0.013
18,GATTTGCCTG,0.968 ± 0.036
19,GATTTGGGAC,1.03 ± 0.05
20,GATTTGGGGA,0.988 ± 0.028
21,GATTTGGTGT,1.03 ± 0.057
22,GATTTGTGCA,0.9952 ± 0.0014
23,GATTTTACTT,1.03 ± 0.015
24,GATTTTGCCA,0.9675 ± 0.0045
25,GATTTTGGCC,0.959 ± 0.037

row,Sequence,switch fluorescence ratio
1,GATTTTGGTT,0.998 ± 0.014
2,GATTTTGTAC,1.012 ± 0.0043
3,GATTTTTAGC,1 ± 0.065
4,GATTTTTGGT,0.995 ± 0.028
5,GATTTTTTGT,0.99 ± 0.028
6,GATTTTTTTC,0.98 ± 0.05
7,GCAAAAATGG,1.02 ± 0.038
8,GCAAAACGTA,1.012 ± 0.009
9,GCAAAAGGTT,1.01 ± 0.022
10,GCAAAATCTG,1.04 ± 0.06
11,GCAAACTAGG,1.11 ± 0.17
12,GCAAACTCTG,1.12 ± 0.15
13,GCAAATGGGA,1.05 ± 0.017
14,GCAAATGGGG,1.02 ± 0.033
15,GCAAATGTAT,1.004 ± 0.0037
16,GCAACAATGG,1.08 ± 0.02
17,GCAACATTTT,1.01 ± 0.043
18,GCAACGTCAA,1.07 ± 0.076
19,GCAACGTTCC,1.96 ± 1.4
20,GCAAGAACTA,1.042 ± 0.0016
21,GCAAGATCGC,1.09 ± 0.02
22,GCAAGCGGGA,1.07 ± 0.079
23,GCAAGGAGGG,1.05 ± 0.14
24,GCAAGGGGTT,1 ± 0.063
25,GCAAGGTAAA,1.01 ± 0.037
